Assay results from paper PMC4303326.

T1: gene 32 protein (g32p), full-length (bacteriophage T4, UniProt P03695 1-301)
T1 sequence: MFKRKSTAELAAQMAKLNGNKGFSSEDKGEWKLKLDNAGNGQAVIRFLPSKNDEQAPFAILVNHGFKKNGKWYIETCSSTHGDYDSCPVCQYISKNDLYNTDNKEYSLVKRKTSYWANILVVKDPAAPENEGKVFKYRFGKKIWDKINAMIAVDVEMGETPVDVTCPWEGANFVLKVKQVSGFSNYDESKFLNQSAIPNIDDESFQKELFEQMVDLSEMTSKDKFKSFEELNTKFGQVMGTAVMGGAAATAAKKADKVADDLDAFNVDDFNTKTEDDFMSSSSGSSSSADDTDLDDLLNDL

B1: (dT)21 probe (ssDNA)
DNA: TTTTTTTTTTTTTTTTTTTTT
modifications: 5' thiol; 3' methylene blue
B2: (dT)21/(dA)21 duplex (dsDNA)
DNA 1: TTTTTTTTTTTTTTTTTTTTT
DNA 2: AAAAAAAAAAAAAAAAAAAAA
modifications: 5' thiol; 3' methylene blue on dT strand

How the values were obtained:
Test in all cases: electrochemical DNA sensor
[1] = target: thrombin (bovine, UniProt P00735;P00735 318-366;367-625)
[2] = target: T1, gene 32 protein (g32p), full-length
[3] = target: T1, gene 32 protein (g32p), full-length; remark: listed apart in the source

Binder	binding result [1]	Kd [2] [nM]	binding result [3]
B1	no binding	~100	
B2			no binding
